Assay results as given in article PMC3808539 (2013).
Where a chain is given by its changes, count along the chain named. Numbers in names are those of the source. Blank lines part the entries; values can stand above or below the binder they belong to. Ends that are not written are not given here.

Key:
[1] = molecular target: peptide having an Ala-Tyr-Ala C terminus; assay: ITC; peptide …
FMLLRRKAYV = molecular target: T1, FMLLRRKAYV (Bacillus subtilis); assay: ITC
T1 chain: FMLLRRKAYV-OH

[2] = molecular target: peptide having an Ala-Tyr-Ala C terminus; assay: ITC

Kd [1]: 2.3 µM | Kd (FMLLRRKAYV): 0.9 µM
B1: isolated PDZ domain of CtpB (domain or fragment)
chain: SVYMDKQTAKQFSDSLDSSFEGIGAEVGMEDGKIIIVSPFKKSPAEKAGLKPNDEIISINGESMAGKDLNHAVLKIRGKKGSSVSMKIQRP

Kd [2]: 40 µM
B2: CtpB R168F (enzyme)
chain: MADSERDKAMDKIEKAYELISNEYVEKVDREKLLEGAIQGMLSTLNDPYSVYMDKQTAKQFSDSLDSSFEGIGAEVGMEDGKIIIVSPFKKSPAEKAGLKPNDEIISINGESMAGKDLNHAVLKIFGKKGSSVSMKIQRPGTKKQLSFRIKRAEIPLETVFASEKKVQGHSVGYIAISTFSEHTAEDFAKALRELEKKEIEGLVIDVRGNPGGYLQSVEEILKHFVTKDQPYIQIAERNGDKKRYFSTLTHKKAYPVNVITDKGSASASEILAGALKEAGHYDVVGDTSFGKGTVQQAVPMGDGSNIKLTLYKWLTPNGNWIHKKGIEPTIAIKQPDYFSAGPLQLKEPLKVDMNNEDVKHAQVLLKGLSFDPGREDGYFSKDMKKAVMAFQDQNKLNKTGVIDTRTAETLNQQIEKKKSDEKNDLQLQTALKSLFVNLEHHHHHH

Kd [1]: 6.5 µM
B3: CtpB S309A, proteolytically inactive mutant (enzyme)
chain: B2 chain with F126R, A185T, L215I, S267A, V402I

Kd [2]: 21 µM
B4: CtpB R168A (enzyme)
chain: B2 chain with F126A
